Reference: the nanobody polyreactivity screen of Harvey et al. (2022)

Experiment: yeast display, Sf9 membrane polyspecificity reagent, FACS + sequencing; frameworks hold sequencing errors
In short: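 Synthetic nanobody libraries on Saccharomyces cerevisiae BJ5465 were galactose-induced for 36–48 hours, stained 1 hour at 4 °C with 10% biotinylated, detergent-solubilized Sf9 membrane reagent and enriched on streptavidin microbeads. FACS then separated cells into low and high (top ~1%) gates by anti-HA (expression) and streptavidin (reagent binding) fluorescence. Genes were colony-PCR amplified, MiSeq 2 × 250 sequenced and CDR-length filtered. A clone's polyreactivity label is that of its gate of origin.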

Sequence | polyreactivity (PSR sort gate)
QVQLVESGGGLVQAGGSLRLSCAASGSIVDFYAMGWYRQSPGTERELVAAIDDIDDSTYYADSVKGRFTISRDNAKNTVYLQMNSLKPEDTAVYYCAAELRPGYRSSYGLIYDYWGQGTQVTVSS | low polyreactivity
QVQLVESGGGLVQAGGSLRLSCAASGSIVDTNAMGWYRQAPGKERELVAAITSTDSTNYADSVKGRFTISRDNAKNTVYLQMNSLKPEDTAVYYCNAALSQLRRGGLAMDYWGQGTQVTVSS | low polyreactivity
QVQLVESGGGLVQAGGSLRLSCAASGSIVDWYVMGWYRQAPGKERELVAAITSTGSTYYADSVKGRFTISRDNAKNTVYLQMNSLKPEDTAVYYCATSFYVYPTYYIMDYWGQGTQVTVSS | low polyreactivity
QVQLVESGGGLVQAGGSLRLSCAASGSIVGTYAMGWYRQAPGKERELVAAITWRGGNTYYADSVKGRFTISRDNAKNTVYLQMNSLKPEDTAVYYCAARGYKSSRRYYYWGQGTQVTVSS | high polyreactivity
QVQLVESGGGLVQAGGSLRLSCAASGSIVGYNAMGWYRQAPGKEWEFVAAISWSGGRTYYADSVKGRFTISRDNAKNTVYLQMNILKPEDTAVYYSAADVFFYVYEAYLLYYWGQRTQVTVSS | low polyreactivity
QVQLVESGGGLVQAGGSLRLSCAASGSIVLIYAMGWYRQAPGKERELVAAITGRGGRTYYADSVKGRFTISRDNAKNTVYLQLNSLKPEDTAVYYCAADSVYTLGLKYDYWGQGTQVTVSS | high polyreactivity
QVQLVESGGGLVQAGGSLRLSCAASGSIVYRYAMGWYRPAPGKERELVAAISYSGGSTYYADSVKGRFTISRDNAKNTVYLQMNSLKPEDTAVYYCAKDYPPPISDYSRYYGYGYWGQGTQVTVSS | low polyreactivity
QVQLVESGGGLVQAGGSLRLSCAASGSIVYYYAMGWYRQAPGKERELVAAITRSGGSTYYADSVKGRFTISRDNAKNTVYLQMNSLKPEDTSVYYCAKDAHAYRDLDYWGQGTQVTVSS | low polyreactivity
QVQLVESGGGLVQAGGSLRLSCAASGSIYAVYAMGWYRPAPGKERELVATISGRGGSTYYADSVKGRFTISRDNAKNTVYLQMNSLKPEDTAVYYCNARVLFRRERMDSWGQGTQVTVSS | high polyreactivity
QVQLVESGGGLVQAGGSLRLSCAASGSIYGGYAMGWYRQAPGKEREFVAAISRSGSSTYYADSVKGRFTISRDNAKNTVYLQMNSLKPEDTAVYSCAARYAGKAPGYRRYDYWGQGTQVTVSS | high polyreactivity
QVQLVESGGGLVQAGGSLRLSCAASGSIYGLYAMGWSREAPGKEREVVATITESGGSTYYADSVKGRFTISRDNAKNTVYLQMKSLKPEDTAVYYCHSDEVSAQYDDWGQGTQVTVSS | low polyreactivity
QVQLVESGGGLVQAGGSLRLSCAASGSIYGPYAMGWYRQAPGKERELVAAIAESSGSTYYADSVKGRFTISRDNAKNTVYLQMNRMKPEDTAVYYCAAEQITGWSWVWGSWYDYWGQGTQVTVSS | low polyreactivity
QVQLVESGGGLVQAGGSLRLSCAASGSIYGTNAMGWYRKAPGKEREFVASITWGGGTYYADSVKGRFTISRDNAKNTVYFQMNSLKQEDSAVYYCATERVYTVYYDYDSWGQGTQVTVSS | low polyreactivity
QVQLVESGGGLVQAGGSLRLSCAASGSIYIYYAMGWYRQAPVKERELVADITFSAGSNTYYADSVKGRFTISRDNAKNTVYLQMNSLKPEDTAVYYCNADRGFFGSITEYDYWGQGTQVTVSS | low polyreactivity
QVQLVESGGGLVQAGGSLRLSCAASGSIYRYAMGSYRQAPGKERELVAAINFNGGRTYYADSVKGRFTISRDNAKNTVYLQMNSLKPEDTAVYYCAAVRSSNQGGFDYWGQGTQVTVSS | high polyreactivity
QVQLVESGGGLVQAGGSLRLSCAASGSIYWLYAMGWYRQAPGKERELVAAIDSGDSTKNADSVKGRFTISRDNAKNTVYLQMNSLKPEDTAVYYCNASRRYHVRAPYDYWGQGTHVTVSS | low polyreactivity
QVQLVESGGGLVQAGGSLRLSCAASGSIYWYAMGWYRQAPGKERQLVAAITKSGSSTYYADSVKGRFTISRDNAKNTVYLQMNSLIPEDTAVYYCAARRAVSGGVRTYYWGQGTQVTVSS | high polyreactivity
QVQLVESGGGLVQAGGSLRLSCAASGSIYYNAMGWYRQAPGKERELVASISTGDSTDYADSVKGRFTISRDNAKNTVYLQMNSLKPEDTAVYYCAADTRLGYWDDYWGQGTQVTVSS | low polyreactivity
QVQLVESGGGLVQAGGSLRLSCAASGSIYYSYAMGWYRQAPGKERELVARITKRGGRTYYADSVKGRFTISRDNAKNTVYLQMNSLKPEDTAVYYCAATTGHRTYRYYYWGQGTQVTVSS | high polyreactivity
QVQLVESGGGLVQAGGSLRLSCAASGSIYYWYTMGWYRQAPGKERELVAAISLSDGRTYYADSVKGRFTISRDNAKNTVYLQMNSLKPEDTAVYYCAADYRDASGYYRYDYWGQGTQVTVSS | low polyreactivity
QVQLVESGGGLVQAGGSLRLSCAASGSKFKRNAMVWYRQAPGKERELVASISSGGSTHYADSVNGRFTISRDNSKNTVYLEMNSLKPEDTAVYYCAATSIRWSVGSFRRDYWGQGTQVTVSS | low polyreactivity

Sequence | polyreactivity (PSR sort gate)
QVQLVESGGGLVQAGGSLRLSCAASGSLFEINAMGWYRPAPGKERELVAAITGSGGSTHYADSVKGRFTISRDNAKNTVYLQMNSLKPEDTAVYYCSAVPRYQYGYWGQGTQVTVSS | low polyreactivity
QVQLVESGGGLVQAGGSLRLSCAASGSLFGVNAMGWYRQAPGKERELVASISLSDDRTYYADSVKGRFTISRDIAKNTDYLQMNSLKPEDTAVYYCARRLLWYWDVDPSLAEYDYWGQGTQVTVSS | low polyreactivity
QVQLVESGGGLVQAGGSLRLSCAASGSLFIANAMGWYRQAPGKERELVAAISWSGGRTYYADSVKGRFTISRDNAKNTVYLQMNSLKPEDTAVYYCAAEWEFYYEYDYWGQGTQVTVSS | high polyreactivity
QVQLVESGGGLVQAGGSLRLSCAASGSLFPLYAMGWYRQAPGKERELVAAITWRGGSTYYADSVKGRFTISRDNAKNTVYLQMNSLKPEDTAVYYCNRDLVPRFDYWGQGTQVTVSS | low polyreactivity
QVQLVESGGGLVQAGGSLRLSCAASGSLFSGNAMGWYRQAPGKEREFVAAISRSGSSTYYADSVKGRFTISRDNAKNPVYLQMNSLKPEDTAVYYCASRFGDMGYWGQGTQVTVSS | high polyreactivity
QVQLVESGGGLVQAGGSLRLSCAASGSMFTNYAMGWYRQAPGQERELVAAISVGGGRTYYADSVKGRFTISRDNAQNTVYVQLNSLKPEDTAVYYCAARYPFGSLGRYGYWGQGTQVTVSS | high polyreactivity
QVQLVESGGGLVQAGGSLRLSCAASGSMLKSYAMGWYIQAPGKESELVAAITYRDGSTYYADSVKGRFTISRDNAKNTVYLQMNSLKPEDTAVYYCNARWARGRYAQYGGLDREYDYWGQGTQVTVSS | high polyreactivity
QVQLVESGGGLVQAGGSLRLSCAASGSNFAAYTMGWYRQAPGKERELVAAISVSTVSTYYADSVKGRFTISRDNAKNTVYLQMYSLTPEDTAVYYCIADATDSYPEKYEHDSWGQGTQVTVSS | low polyreactivity
QVQLVESGGGLVQAGGSLRLSCAASGSNFDNAKGWYRQAPGKERELVAAITSGGITNYADSVKGRFTNSRDNAKKTVYLQMNSQKPEDTAVYYCNTMSPTQTKYDYWGQGTQVTVSS | low polyreactivity
QVQLVESGGGLVQAGGSLRLSCAASGSNFDPNAMGWYRQAPGKERELVAAISWSGGSTYYADSVKGRFTISRDNAKNTVYLQMNSLKPEDTAVSYCNAQFYDSYSYTNDDWGQGTLVTVSS | low polyreactivity
QVQLVESGGGLVQAGGSLRLSCAASGSNFGFYAMGWYRQAPGKERELVAAIDSGDSTNYADSVKGRFTISRDNAKNTVYLQMNSLKPEDTAVYYCNAEAWWYFWFDYWGQGTQVTVSS | low polyreactivity
QVQLVESGGGLVQAGGSLRLSCAASGSNFGPYAMGWSRPAPGKEMELVASITWTGGRTYYADSVKGRFTISLDNAKNTVYLQMNSLKPEDTAVYYCAADYSPSTWYLYYTLYYYWGQGTQVTVSS | low polyreactivity
QVQLVESGGGLVQAGGSLRLSCAASGSNFGPYAMGWYRQAPGKERELVAAISYSSVRTYYADSVKGRFTISRDNAKNTVYLQMNSLKPEVTAVYYCNAYFRYAYPSKMDYWGQGTQVTVSS | low polyreactivity
QVQLVESGGGLVQAGGSLRLSCAASGSNFHGNSLGRYRQGTGKERELVAAISQSGDSTYYADSVKGRFTISRDNAKNTVYLQMNSLKPEDTAVYYCAARSGYRGYYHFYYWGQGTQVTVSS | high polyreactivity
QVQLVESGGGLVQAGGSLRLSCAASGSNFLAYAMGWYRQAPGKERELVADISWGGGSTSYADSVKGRFTISRDNAKNTVYLQMNSLKPEDTAVYYCNKGSFSKRRDYYWGQGTQVTVSS | high polyreactivity
QVQLVESGGGLVQAGGSLRLSCAASGSNFLGNAMGWSIQAPGKERELVAAISSITGRTYYADSVKGRFTISRDNAKNTVYLQMNSLKPEDTAVYYCAAVQGANYYNEFDYWGQGTQVTVSS | high polyreactivity
QVQLVESGGGLVQAGGSLRLSCAASGSNFLHNAMGWYRQAPGKERELDAAISGTGGRTYYADSVKGRFTISRDTANNTVYLQMNGLKPEDTAVYYWAARGSHVSIPRYNYWGQGTQVTVSS | high polyreactivity
QVQLVESGGGLVQAGGSLRLSCAASGSNFPHYTMGWYRQAPAKERELVAAISNYGSSTYYADSVKGRFTISRDNAKNTVYLQMNSLKPEDTAVYYCNADDYGYSPGVNYWGQGTQVTVSS | low polyreactivity
QVQLVESGGGLVQAGGSLRLSCAASGSNFRGNAKGWSRQAPGKERELVAAISKSGGSTYYADSVKGRFTISRDNAKNTVYLQMNSLKPEDTAVYYCAARTTYLYGMYYWGQGTQVTVSS | low polyreactivity
QVQLVESGGGLVQAGGSLRLSCAASGSNFRLYAMGWYRHAPGKERELVATISGSAGRTYYADSVKGRFTISRDYAKNTVYLQMNSLKPEDTAVYYCAARWYQEYFWGQGTQVTVSS | high polyreactivity
